Consider 3 molecules from publication PMC10783494, “A conserved protein inhibitor brings under check the activity of RNase E in cyanobacteria”.

Data set [1] addresses RneN412, the catalytic region of Anabaena RNase E (1-412 aa) (Anabaena PCC 7120).
The target of data set [2] is RneN396, the catalytic core of Anabaena RNase E (1-396 aa) (Anabaena PCC 7120). The experiment in a line: native gel or EMSA; RneN396, RebA and their mixture incubated for 30 min and separated on a native gel; the band of the complex excised and analysed by SDS-PAGE beside defined molar ratios, bands quantified with ImageJ. In general terms: Mobility shift assays separate free from complexed probe on a gel.

For data set [3] the target is unchanged. The experiment in a line: SPR; Biacore, 25°C, PBS pH 7.4; RneN396 (2 uM) immobilized on a streptavidin-coated sensor chip; RebA injected at 0-1000 nM; steady-state affinity.
Data set [4] has as its target T1, RneN396, the catalytic core of Anabaena RNase E (1-396 aa) (Anabaena PCC 7120).
T1 chain: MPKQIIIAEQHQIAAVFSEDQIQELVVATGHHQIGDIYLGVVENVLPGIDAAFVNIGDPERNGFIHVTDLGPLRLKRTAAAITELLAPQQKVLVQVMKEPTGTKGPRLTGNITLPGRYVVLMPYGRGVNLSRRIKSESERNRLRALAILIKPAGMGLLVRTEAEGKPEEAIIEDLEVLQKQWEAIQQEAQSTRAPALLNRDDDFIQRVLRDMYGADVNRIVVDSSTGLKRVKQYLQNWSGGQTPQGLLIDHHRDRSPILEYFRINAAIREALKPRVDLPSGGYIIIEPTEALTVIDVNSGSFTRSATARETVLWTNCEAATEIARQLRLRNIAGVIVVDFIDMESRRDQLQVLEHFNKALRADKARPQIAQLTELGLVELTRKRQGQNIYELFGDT
The experiment in a line: BLI. (In general: In BLI a coated tip is dipped into the sample, and binding shifts an interference pattern.)

In a further data set the target is RebA (Anabaena PCC 7120, UniProt A0ABR7ZDZ7 1-423). The experiment in a line: EMSA; RebA up to 50-fold molar excess; 2 mM EDTA; 20 mM Tris-HCl pH 8.0, 200 mM NaCl, 0.1 mM DTT, 2 mM EDTA, 5% glycerol, 1 mg/ml BSA; 30 min at 30 C; 5% native PAGE at 4 C. Conditions: protein: recombinant; tags: N-terminal Strep tag; label: 3' FAM.

The stoichiometry N is the number of molecules, sites or subunits per partner or assembly. For orientation: Kd means the constant that tells how readily two partners part at equilibrium. Low values mean tighter binding, high ones weaker binding. Turning to “full-length RebA bearing an N-terminal Strep tag (recombinant) (natural protein)”, in data set [1], the cleavage of 5′ p-LU13-FAM by RneN412 (0.4 nM) with increasing RebA: ratio of RebA to RneN412 for half-inhibition (RebA:RneN412 ratio) came out at 1 and the cleavage of 5′ p-LU13-FAM by RneN412 with increasing RebA (up to a RebA:RneN412 ratio of 4:1): drop of activity amounted to 90%. Besides, in data set [2], the stoichiometry N is 1 RneN396:RebA. The Kd in data set [3] came out at 0.0103 µM.

B1: full-length RebA bearing an N-terminal Strep tag (recombinant) (natural protein)
chain: MRKLTNSDKQEILKLYRETAETTSTLAERYDVSNSTISRLLKSTLPEDEYEFLVSLKRAARTPEGRAQVSYDQIPFVGQPEEAPVISTQKVELPEPITKPEPSRVEDKPTPVIRKGRQAKPAPLPEENPQPLLAEEEKPTPVIRRGRQAKPAPLPEEEKPTPVIRKARQAKPEFFAEEEEKPTPVIRKARQAKPEFFAEEEEKPTPVIRRVRRRSASEEEDREPIARQLEIPVGKPQEIISVSSPSLEDETAEVTPMGYAPPQVIAEMLGEDLLDESEDLDDLEEDLDEDLDEEDYEDEEDDLEEARPLVTRRRFGDAAVQVLPLSVASLPKTCYLVIDRSSELITRPLKDFGDLGQIPSLETQQRTLPIFDNHRVAKRFSTKRDRVIKVPDSRMLHKARTHLQAKGITRLLIDGQVYSLSLV
The koff is the rate constant with which the complex falls apart. A low value points to slow dissociation. With B1, the dissociation rate constant (koff) in data set [4] is 0.000112 s⁻¹.

B2: 5' p-LU13-FAM (ssRNA)
RNA: GAGACAGUAUUUG
modifications: 5' monophosphate
For the molecule B2, the binding result with RebA is on record as “no binding”.
